From paper PMC9713717

Target: T1, human NKCC1 (sodium-potassium-chloride transporter NKCC1, SLC12A2) (human), P55011
T1 chain: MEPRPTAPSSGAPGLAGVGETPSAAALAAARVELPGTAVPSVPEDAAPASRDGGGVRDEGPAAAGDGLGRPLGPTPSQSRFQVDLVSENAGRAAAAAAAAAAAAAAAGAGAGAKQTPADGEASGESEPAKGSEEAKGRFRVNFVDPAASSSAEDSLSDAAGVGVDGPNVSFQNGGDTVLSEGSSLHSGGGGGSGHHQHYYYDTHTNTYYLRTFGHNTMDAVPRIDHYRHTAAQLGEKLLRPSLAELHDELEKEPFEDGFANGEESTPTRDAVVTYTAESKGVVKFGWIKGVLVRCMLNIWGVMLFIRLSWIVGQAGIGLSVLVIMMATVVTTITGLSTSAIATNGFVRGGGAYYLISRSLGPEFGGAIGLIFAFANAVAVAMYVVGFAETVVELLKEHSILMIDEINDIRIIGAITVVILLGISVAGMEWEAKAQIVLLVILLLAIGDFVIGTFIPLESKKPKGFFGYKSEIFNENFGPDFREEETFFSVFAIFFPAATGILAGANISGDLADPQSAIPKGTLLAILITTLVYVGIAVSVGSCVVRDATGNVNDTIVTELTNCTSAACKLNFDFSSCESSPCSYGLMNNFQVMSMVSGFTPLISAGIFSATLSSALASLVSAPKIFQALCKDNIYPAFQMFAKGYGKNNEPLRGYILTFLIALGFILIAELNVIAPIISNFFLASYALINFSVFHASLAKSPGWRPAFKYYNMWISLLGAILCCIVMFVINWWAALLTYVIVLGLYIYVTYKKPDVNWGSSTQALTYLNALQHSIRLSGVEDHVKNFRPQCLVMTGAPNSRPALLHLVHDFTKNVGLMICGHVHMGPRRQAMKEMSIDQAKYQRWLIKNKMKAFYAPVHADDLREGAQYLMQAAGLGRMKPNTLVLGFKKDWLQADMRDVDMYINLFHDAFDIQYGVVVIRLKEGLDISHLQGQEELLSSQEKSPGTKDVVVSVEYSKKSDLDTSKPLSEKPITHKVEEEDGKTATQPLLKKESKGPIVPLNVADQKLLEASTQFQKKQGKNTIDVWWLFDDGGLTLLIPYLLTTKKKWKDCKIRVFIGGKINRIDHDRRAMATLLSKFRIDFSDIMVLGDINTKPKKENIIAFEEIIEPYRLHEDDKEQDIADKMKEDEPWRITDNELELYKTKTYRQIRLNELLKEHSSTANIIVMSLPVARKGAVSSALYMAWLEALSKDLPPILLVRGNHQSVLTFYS
Experiment: cryo-EM structure
Conditions: remark: other sources report otherwise

stoichiometry N: 2
B1: human NKCC1 (sodium-potassium-chloride transporter NKCC1, SLC12A2), P55011 1-1212 (natural protein)
chain: T1 chain
